The labels stand for the following.
B1: RSPH3 (parent)
chain: MTVKPAKAASLARNLAKRRRTYLG
B2: SETD8 (parent)
chain: KKAQGKTQQNRKLTDFYPVRRSSR
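Note: lentivirally expressed fusions sorted by FACS into six bins by GFP to DsRed ratio, PSI derived from sequencing read proportions per bin multiplied by bin number.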

In the first data set the parent is B1. Kind of data set: protein stability index of a GFP-peptide fusion (GPS, HEK-293T) (PSI 1-6); higher = more stable. The following applies: c terminus: a fixed tail appended.
Consider MTVKPAKAASLARNLAKRRRTYWG [L23W], for which the protein stability index amounted to 3.34.

Regarding MTVKPAKAASLARNLAKRRRTYDG [L23D], the protein stability index was found to be 3.71.

As for MTVKPAKAASLARNLAKRRRTYIG [L23I], the protein stability index stood at 4.26.

MTVKPAKAASLARNLAKRRRTYVG [L23V]: the protein stability index came to 2.96.

Consider MTVKPAKAASLARNLAKRRRTYFG [L23F], for which the protein stability index is 3.2.

Regarding MTVKPAKAASLARNLAKRRRTYCG [L23C], the protein stability index is 3.28.

With MTVKPAKAASLARNLAKRRRTYTG [L23T], the protein stability index is 4.09.

As to MTVKPAKAASLARNLAKRRRTYMG [L23M], the protein stability index was 3.53.

MTVKPAKAASLARNLAKRRRTYGG [L23G]: the protein stability index was determined as 4.13.

MTVKPAKAASLARNLAKRRRTYPG [L23P]: the protein stability index was determined as 3.42.

As to MTVKPAKAASLARNLAKRRRTYAG [L23A], the protein stability index worked out at 3.98.

As to MTVKPAKAASLARNLAKRRRTYQG [L23Q], the protein stability index stood at 4.34.

Turning to MTVKPAKAASLARNLAKRRRTYSG [L23S], the protein stability index came to 4.5.

Regarding MTVKPAKAASLARNLAKRRRTYRG [L23R], the protein stability index worked out at 3.61.

For the variant MTVKPAKAASLARNLAKRRRTYKG [L23K], the protein stability index came to 3.5.

As to MTVKPAKAASLARNLAKRRRTYNG [L23N], the protein stability index is 3.5.

In the case of MTVKPAKAASLARNLAKRRRTYHG [L23H], the protein stability index is 3.9.

In the case of MTVKPAKAASLARNLAKRRRTYYG [L23Y], the protein stability index is 3.

With MTVKPAKAASLARNLAKRRRTYEG [L23E], the protein stability index worked out at 4.43.

As for MTVKPAKAASLARNLAKRRRTALG [Y22A], the protein stability index was determined as 3.81.

Turning to MTVKPAKAASLARNLAKRRRTCLG [Y22C], the protein stability index is 3.63.

Regarding MTVKPAKAASLARNLAKRRRTPLG [Y22P], the protein stability index was 3.26.

Regarding MTVKPAKAASLARNLAKRRRTQLG [Y22Q], the protein stability index was 3.93.

Turning to MTVKPAKAASLARNLAKRRRTWLG [Y22W], the protein stability index worked out at 3.06.

On to MTVKPAKAASLARNLAKRRRTDLG [Y22D], for which the protein stability index is 3.31.

As for MTVKPAKAASLARNLAKRRRTFLG [Y22F], the protein stability index came out at 3.25.

On to MTVKPAKAASLARNLAKRRRTNLG [Y22N], for which the protein stability index came to 3.46.

With MTVKPAKAASLARNLAKRRRTHLG [Y22H], the protein stability index amounted to 3.84.

As to MTVKPAKAASLARNLAKRRRTVLG [Y22V], the protein stability index was found to be 3.99.

Turning to MTVKPAKAASLARNLAKRRRTGLG [Y22G], the protein stability index was found to be 4.24.

Regarding MTVKPAKAASLARNLAKRRRTMLG [Y22M], the protein stability index amounted to 2.9.

As for MTVKPAKAASLARNLAKRRRTKLG [Y22K], the protein stability index was determined as 3.85.

Consider MTVKPAKAASLARNLAKRRRTRLG [Y22R], for which the protein stability index is 3.03.

MTVKPAKAASLARNLAKRRRTSLG [Y22S]: the protein stability index amounted to 3.23.

On to MTVKPAKAASLARNLAKRRRTTLG [Y22T], for which the protein stability index is 3.88.

Take MTVKPAKAASLARNLAKRRRTILG [Y22I]: the protein stability index was found to be 3.37.

With MTVKPAKAASLARNLAKRRRTELG [Y22E], the protein stability index worked out at 3.12.

As to MTVKPAKAASLARNLAKRRRVYLG [T21V], the protein stability index is 2.83.

As for MTVKPAKAASLARNLAKRRRYYLG [T21Y], the protein stability index was 2.13.

For the variant MTVKPAKAASLARNLAKRRRQYLG [T21Q], the protein stability index is 3.21.

Take MTVKPAKAASLARNLAKRRRSYLG [T21S]: the protein stability index came to 3.26.

In the case of MTVKPAKAASLARNLAKRRRRYLG [T21R], the protein stability index was 3.18.

In the case of MTVKPAKAASLARNLAKRRRPYLG [T21P], the protein stability index was determined as 2.92.

Consider MTVKPAKAASLARNLAKRRRWYLG [T21W], for which the protein stability index is 1.77.

MTVKPAKAASLARNLAKRRRTYLH [G24H]: the protein stability index turned out to be 2.7.

As for MTVKPAKAASLARNLAKRRRTYLW [G24W], the protein stability index is 1.63.

With MTVKPAKAASLARNLAKRRRTYLT [G24T], the protein stability index was 3.42.

Consider MTVKPAKAASLARNLAKRRRTYLV [G24V], for which the protein stability index turned out to be 2.17.

As to MTVKPAKAASLARNLAKRRRTYLE [G24E], the protein stability index worked out at 3.54.

Turning to MTVKPAKAASLARNLAKRRRTYLY [G24Y], the protein stability index was 2.42.

As to MTVKPAKAASLARNLAKRRRTYLF [G24F], the protein stability index came out at 1.97.

Take MTVKPAKAASLARNLAKRRRTYLD [G24D]: the protein stability index was 2.04.

Consider MTVKPAKAASLARNLAKRRRTYLC [G24C], for which the protein stability index came out at 2.64.

As for MTVKPAKAASLARNLAKRRRTYLQ [G24Q], the protein stability index was 2.94.

On to MTVKPAKAASLARNLAKRRRTYLA [G24A], for which the protein stability index came out at 3.33.

Regarding MTVKPAKAASLARNLAKRRRTYLR [G24R], the protein stability index worked out at 3.46.

Take MTVKPAKAASLARNLAKRRRTYLS [G24S]: the protein stability index was found to be 3.15.

Regarding MTVKPAKAASLARNLAKRRRTYLL [G24L], the protein stability index turned out to be 2.3.

Consider MTVKPAKAASLARNLAKRRRTYLP [G24P], for which the protein stability index came out at 3.63.

With MTVKPAKAASLARNLAKRRRTYLM [G24M], the protein stability index was determined as 2.38.

For the variant MTVKPAKAASLARNLAKRRRTYLK [G24K], the protein stability index came out at 2.68.

For the variant MTVKPAKAASLARNLAKRRRTYLI [G24I], the protein stability index was found to be 2.35.

With MTVKPAKAASLARNLAKRRRTYLN [G24N], the protein stability index was found to be 3.18.

Variants of B2 are the subject of another data set. Described as above. The following applies: c terminus: a fixed tail appended.
In the case of KKAQGKTQQNRKLPDFYPVRRSSR [T14P], the protein stability index was determined as 2.4.

As to KKAQGKTQQNRKLWDFYPVRRSSR [T14W], the protein stability index was determined as 3.4.

On to KKAQGKTQQNRKLQDFYPVRRSSR [T14Q], for which the protein stability index is 3.33.

Regarding KKAQGKTQQNRKLMDFYPVRRSSR [T14M], the protein stability index worked out at 1.79.

KKAQGKTQQNRKLHDFYPVRRSSR [T14H]: the protein stability index turned out to be 3.1.

With KKAQGKTQQNRKLEDFYPVRRSSR [T14E], the protein stability index came out at 4.32.

As for KKAQGKTQQNRKLRDFYPVRRSSR [T14R], the protein stability index was 3.11.

On to KKAQGKTQQNRKLADFYPVRRSSR [T14A], for which the protein stability index turned out to be 3.99.

In the case of KKDQGKTQQNRKLTDFYPVRRSSR [A3D], the protein stability index turned out to be 3.79.

Turning to KKFQGKTQQNRKLTDFYPVRRSSR [A3F], the protein stability index is 2.93.

On to KKEQGKTQQNRKLTDFYPVRRSSR [A3E], for which the protein stability index came out at 3.01.

Consider KYAQGKTQQNRKLTDFYPVRRSSR [K2Y], for which the protein stability index was 2.43.

As to KLAQGKTQQNRKLTDFYPVRRSSR [K2L], the protein stability index turned out to be 1.57.

For KSAQGKTQQNRKLTDFYPVRRSSR [K2S], the protein stability index is 2.12.

Regarding KGAQGKTQQNRKLTDFYPVRRSSR [K2G], the protein stability index came out at 3.04.

As for KDAQGKTQQNRKLTDFYPVRRSSR [K2D], the protein stability index is 2.65.

Regarding KMAQGKTQQNRKLTDFYPVRRSSR [K2M], the protein stability index was found to be 2.54.

For the variant KHAQGKTQQNRKLTDFYPVRRSSR [K2H], the protein stability index was 3.35.

Take KKAQGKTQQNNKLTDFYPVRRSSR [R11N]: the protein stability index came to 2.86.

For KKAQGKTQQNHKLTDFYPVRRSSR [R11H], the protein stability index stood at 3.68.

KKAQGKTQQNTKLTDFYPVRRSSR [R11T]: the protein stability index came to 2.19.

Consider KKAQGKTQQNVKLTDFYPVRRSSR [R11V], for which the protein stability index is 1.86.

With KKAQGKTQQNRKLTDFYPIRRSSR [V19I], the protein stability index is 3.13.

In the case of KKAQGKTQQNRKLTDFYPPRRSSR [V19P], the protein stability index amounted to 2.88.

With KKAQGKTQQNRKLTDFYPLRRSSR [V19L], the protein stability index is 3.11.

Turning to KKAQGKTQQNRKLTDFYPNRRSSR [V19N], the protein stability index is 3.29.

Regarding KKAQGKTQQNRKLTDFYPGRRSSR [V19G], the protein stability index worked out at 4.08.

Turning to KKAQGKTQQNRKLTDFYPERRSSR [V19E], the protein stability index is 3.84.

Take KKAQGKTQQNRKLTDFYPFRRSSR [V19F]: the protein stability index was found to be 2.42.

KKAQGKTQQNRKLTDFYPKRRSSR [V19K]: the protein stability index turned out to be 2.02.

On to KKAQGKTQQNRKLTDFKPVRRSSR [Y17K], for which the protein stability index turned out to be 4.5.

(Values after the supplement of paper PMC10567573.)
